Measured values reported in patent publication US20250145697A1 (WASHINGTON UNIVERSITY, published 2025).

T1: ApoE4 amino acids 1-132, expressed on yeast (human, UniProt P02649 19-150)
T1 construct: with myc tag, on yeast cells; range counts on the mature protein; also called up to helix 3; not shown: myc tag and yeast surface-display partner
T1 chain: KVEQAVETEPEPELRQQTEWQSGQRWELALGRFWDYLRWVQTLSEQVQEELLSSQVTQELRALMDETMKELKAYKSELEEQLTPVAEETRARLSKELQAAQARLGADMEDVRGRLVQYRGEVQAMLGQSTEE

T2: ApoE4 amino acids 24-125, expressed on yeast (human, UniProt P02649 42-143)
T2 construct: with myc tag, on yeast cells; range counts on the mature protein; also called helix1 + 2 + 3
T2 chain: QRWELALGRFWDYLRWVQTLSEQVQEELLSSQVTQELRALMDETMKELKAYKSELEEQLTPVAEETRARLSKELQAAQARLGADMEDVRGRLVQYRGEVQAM

B1: HJ151 (antibody, V domains shown)
VH: QVQLQQSGAELVRPGASVTLSCKASGYTFTDYEMHWVKQTPVHGLEWIGVIDPEKGGTAYNQKFKGKAILTADKSSSTAYMDLRSLTSEDSAVYYCLKDSWGQGTTLTVSS
VL: DVLMTQTPLSLPVSLGDQASISCRSSQTIVHSDGNTYLEWYLQKPGQSPKLLIYKVSNRFSGVPDRFSGSGSGTYFTLKISRVEAEDLGVYYCFQGSHVPCTFGGGTKLEIKR
notes: murine monoclonal antibody from hybridoma; also called HJ151B (biotinylated)
B2: HJ156 (antibody, V domains shown)
VH: QVQLQQSGPELVKPGASVKISCKASGYIFTDYYINWVKRRPGQGLEWIGWIFPGSGVSYYNEQFKGKATLTVDKPSNTAYIFLSRLTSEDSAVYFCARYYSSSPFAYWGQGTLVTVSA
VL: DVLMTQTPLSLPVSLGDQASISCRSSQNIIHSNGNTYLEWFLQRPGQSPELLIYKVSNRFSGVPDRFSGSGSGTDFTLKISRVEAEDLGVYYCFQGSHVPYTFGGGTKLEIKR
notes: murine monoclonal antibody from hybridoma; also called HJ156B (biotinylated)
B3: HJ154 (antibody, V domains shown)
VH: QVQLQQPGTEFVMSGASVMLSCKASGYIFTNYWLHWVKQRPGHGLEWIGEIDPSDSYSICNDNFKGKSTLTVDKSSSTAYMQLSSLTSEDSAVYYCAGSLGRVGLAYWGQGTLVTVST
VL: QIVLTQSPAIMSASPGEKVTMSCSASSSVSNMYWYQQKPGSSPKSWIYRTSNLASGVPARFSGSGSGTSYSLTISNMEAEDAATYYCQHYQNYPLTFGAGTKLELKR
notes: murine monoclonal antibody from hybridoma; also called HJ154B (biotinylated)

What was measured:
[1] = molecular target: T1, ApoE4 amino acids 1-132, expressed on …; experiment: yeast display of myc-tagged ApoE4 fragment, antibody staining
[2] = molecular target: T2, ApoE4 amino acids 24-125, expressed on …; experiment: as above
[3] = molecular target: T3, heat-induced aggregates of ApoE4 (human, UniProt P02649 19-317); experiment: ELISA: ApoE4 incubated at 40 C for 24 hr on the plate, antibody titrated, OD650
T3 construct: mature; aggregated state of the recombinant protein; also called ApoE4 incubated at 40 C for 24 hr; heat-treated ApoE4
Method: 1: untreated ApoE4. 2: ApoE4 that has been incubated at 40° C. for 24 hr. Supernatant(S) and pellet (P) from ultracentrifugation were resolved on SDS-PAGE and stained by Coomassie blue. (D) Binding of HJ156 to different preparations of ApoE4 loaded at the same concentration on the ELISA plate. Sup of untreated: Supernatant fraction of untreated ApoE4 from ultracentrifugation. Sup/Pel of 24h 40C: Supernatant/pellet fraction of ApoE4 incubated at 40° C. for 24 hour. (E) Binding of HJ156 to untreated and 40° C. incubated ApoE4 with and without denaturation by 1% SDS or 4M guanidine HCl.
In order to test whether HJ151 and HJ156 bind to some form of ApoE in the brain, unfixed frozen brain sections from APPPS1/APOE4 or APPPS1/EKO mice using HJ151 and HJ156 (FIG. 38A). The presence of Aβ plaques was confirmed with Aβ immunostaining using anti-Aβ antibody HJ3.4 on the sections from the same brain. […] Next, the ability of HJ156 to bind to an aggregated form of ApoE induced by incubation at 40° C. was queried. The binding of untreated ApoE to HJ151, HJ153 or HJ156 was compared to the binding of ApoE incubated at 40° C. to HJ151, HJ153 or HJ156. HJ153 bound to untreated ApoE or ApoE incubated at 40° C. similarly while HJ151 and HJ156 preferentially bound to ApoE incubated at 40° C. (FIG. 38B). […] Solubilization of the ApoE aggregates reduced their binding to HJ156. […]

[4] = molecular target: T3, heat-induced aggregates of ApoE4; experiment: ELISA: pellet fraction of ApoE4 incubated at 40 C for 24 h loaded at the same concentration on the plate, HJ156 titrated, OD650
[5] = molecular target: T4, recombinant alipidated human ApoE3 (human, UniProt P02649 19-317); experiment: ELISA, plate coated with 0.5 ug/ml recombinant apoE3, HRP goat anti-mouse detection, OD450
T4 construct: mature; full length recombinant protein made in E. coli or bought
Method: (§1) ELISA plates were coated with 0.5 μg/ml of recombinant apoE2 (square), apoE3 (open circle), or apoE4 (closed circle). Then different concentrations of (A) HJ151, (B) HJ153, (C) HJ154, or (D) HJ156 were loaded on the plates. Horse-radish peroxidase labeled goat anti-mouse secondary antibodies were used to detect binding. […] HJ151 is specific for ApoE4 and HJ156 binds only ApoE3 and ApoE4. FIG. 5E-H are graphs depicting surface plasmon resonance profiles for various antibodies. Anti-ApoE antibodies were serially diluted 3-fold (starting at 100 nM for HJ153 (E), and 1000 nM for HJ151 (F), and […] (G)) for detection of binding to biotinylated-recombinant apoE4 captured on a streptavidin chip. Samples were injected at a flow rate of 30 μl/minute. (H) Apparent KD values of HJ151, HJ153 and HJ156 were calculated based on the SPR experiment.
(§2) ELISA plates were coated with 0.5 μg/ml of recombinant apoE2, apoE3, or apoE4. Then different concentrations of HJ151 (FIG. 5A), HJ153 (FIG. 5B), HJ154 (FIG. 5C), or HJ156 (FIG. 5D) were loaded on the plates. Horse-radish peroxidase labeled goat anti-mouse secondary antibodies were used to detect binding. […] HJ151 is specific for ApoE4 and HJ156 binds only ApoE3 and ApoE4. Surface plasmon resonance profiles for various antibodies was also performed.

[6] = molecular target: T5, recombinant alipidated human ApoE2 (human, UniProt P02649 19-317); experiment: ELISA, plate coated with 0.5 ug/ml recombinant apoE2, HRP goat anti-mouse detection, OD450
T5 construct: mature; full length recombinant protein made in E. coli or bought
Method: as §1, §2

[7] = molecular target: T5, recombinant alipidated human ApoE2; experiment: direct ELISA on coated recombinant alipidated ApoE (0.5 ug/ml)
Procedure, shortened: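 Antibody dose-response curves were built by HRP-conjugated goat anti-mouse IgG detection of anti-ApoE antibodies bound to blocked plates. The coat was full-length alipidated recombinant ApoE at 0.5 μg/ml, applied overnight, either E. coli-expressed and purified or commercially sourced.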
Target sequence in this assay (P02649 19-317 R176C): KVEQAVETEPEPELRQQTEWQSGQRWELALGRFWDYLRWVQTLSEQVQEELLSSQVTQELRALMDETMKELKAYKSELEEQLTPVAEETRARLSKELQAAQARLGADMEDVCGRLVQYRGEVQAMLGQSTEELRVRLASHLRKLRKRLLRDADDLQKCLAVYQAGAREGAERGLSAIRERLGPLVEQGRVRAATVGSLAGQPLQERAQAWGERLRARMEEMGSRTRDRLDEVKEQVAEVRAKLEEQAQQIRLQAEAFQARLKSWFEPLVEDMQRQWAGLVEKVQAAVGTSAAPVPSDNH

| Binder | binding result [1] | binding result [2] | EC50 (read off the curve) [3] | EC50 (read off the curve) [4] | EC50 (read off the curve) [5] | EC50 (read off the curve) [6] | EC50 [7] |
| --- | --- | --- | --- | --- | --- | --- | --- |
| B1 | binds | binds | ~0.2 nM |  |  |  |  |
| B2 |  |  |  | ~0.1 nM | ~0.9 nM |  |  |
| B3 | binds | binds |  |  |  | ~0.3 nM | 0.25 nM |
